Data taken from patent US20200239537.

Columns and labels:
[1] = test system: apelin-17 A2 (5)
[2] = test system: apelin-17 (2)
[3] = test system: N-MeLeu9-apelin-17 A2 (11)

Chain of recombinant human plasma kallikrein KLKB1 (rhKLKB1, Novoprotein) (chain, as listed by the source): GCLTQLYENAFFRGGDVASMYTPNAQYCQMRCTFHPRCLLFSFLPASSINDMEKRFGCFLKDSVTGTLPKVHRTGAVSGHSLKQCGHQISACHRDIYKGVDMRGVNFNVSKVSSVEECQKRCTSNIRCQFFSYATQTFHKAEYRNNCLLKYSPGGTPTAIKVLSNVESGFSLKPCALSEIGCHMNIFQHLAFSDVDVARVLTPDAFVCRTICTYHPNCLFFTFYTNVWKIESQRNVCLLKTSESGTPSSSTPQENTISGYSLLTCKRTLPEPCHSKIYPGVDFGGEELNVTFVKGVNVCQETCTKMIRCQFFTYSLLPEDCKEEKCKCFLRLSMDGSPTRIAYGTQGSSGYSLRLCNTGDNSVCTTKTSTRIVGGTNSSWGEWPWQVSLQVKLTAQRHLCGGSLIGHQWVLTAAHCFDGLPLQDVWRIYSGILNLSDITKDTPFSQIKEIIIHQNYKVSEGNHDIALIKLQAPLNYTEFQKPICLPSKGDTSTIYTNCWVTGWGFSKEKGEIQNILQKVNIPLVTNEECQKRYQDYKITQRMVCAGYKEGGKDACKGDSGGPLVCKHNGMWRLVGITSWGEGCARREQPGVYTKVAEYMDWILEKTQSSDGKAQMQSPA

## recombinant human plasma kallikrein KLKB1 (rhKLKB1, Novoprotein)
[1]
  Km: 30 µM
  kcat (1/S): 1.4 1/S
  kcat/Km (1/MS): 47000 1/MS
[2]
  Km: 97 µM
  kcat (1/S): 13.7 1/S
  kcat/Km (1/MS): 140000 1/MS
[3]
  Km: 245 µM
  kcat (1/S): 16.5 1/S
  kcat/Km (1/MS): 67000 1/MS
